{
  "source": "paper PMC5540134",
  "about": "(Biochemistry, 2017)",
  "binders": {"B1": {"name": "WT-HypA (Helicobacter pylori hydrogenase maturation protein HypA, unmodified N-terminus) (natural protein)", "chain": "MHEYSVVSSLIALCEEHAKKNQAHKIERVVVGIGERSAMDKSLFVSAFETFREESLVCKDAILDIVDEKVELECKDCSHVFKPNALDYGVCEKCHSKNVIITQGNEMRLLSLEMLAE"}, "B2": {"name": "L2*-HypA (Met1_His2insLeu variant of Helicobacter pylori HypA) (natural protein)", "chain": "MLHEYSVVSSLIALCEEHAKKNQAHKIERVVVGIGERSAMDKSLFVSAFETFREESLVCKDAILDIVDEKVELECKDCSHVFKPNALDYGVCEKCHSKNVIITQGNEMRLLSLEMLAE"}},
  "target": "T1, WT-UreE dimer (Helicobacter pylori urease accessory protein UreE) (Helicobacter pylori, UniProt Q09064 1-170)",
  "T1 sequence": "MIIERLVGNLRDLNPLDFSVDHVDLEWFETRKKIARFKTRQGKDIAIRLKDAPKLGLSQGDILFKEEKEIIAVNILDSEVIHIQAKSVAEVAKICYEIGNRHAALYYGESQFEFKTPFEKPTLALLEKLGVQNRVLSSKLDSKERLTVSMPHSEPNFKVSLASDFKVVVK",
  "assay": "ITC",
  "data": [
    {"binder": "B1", "values": [
      {"measurement": "Kd", "value": "0.96 ± 0.09", "unit": "µM"},
      {"measurement": "dH", "value": "-26.23 ± 0.251", "unit": "kJ/mol"},
      {"measurement": "stoichiometry N", "value": "1.5 ± 0.1", "unit": "HypA per UreE dimer"}
    ]},
    {"binder": "B2", "values": [
      {"measurement": "Kd", "value": "0.69 ± 0.11", "unit": "µM"},
      {"measurement": "dH", "value": "-16.2 ± 0.251", "unit": "kJ/mol"},
      {"measurement": "stoichiometry N", "value": "1.6 ± 0.2", "unit": "HypA per UreE dimer"}
    ]}
  ]
}
